Assay results taken from patent US12612465B2, “Formulations comprising PCSK9 specific monoclonal antibodies” (Amgen Inc., priority 2012, dated 2026).

Key:
PCSK9 [1] = molecular target: T1, PCSK9 (Homo sapiens, UniProt Q8NBP7); test: 12 week study in hypercholesterolemic patients unable to tolerate a statin (Example 23); format: in vivo; conditions: statin-intolerant, preliminary
T1 construct: endogenous in cells; host or cells: human subjects, in vivo
Protocol: It is planned to enroll 150 subjects. […] Randomization will be stratified by screening LDL-C level (<130 mg/dL [3.4 mmol/L] vs ≥130 mg/dL) and statin use at baseline (yes vs no). Randomization should occur within 5-10 days of the screening LDL-C evaluation used to determine eligibility. Monoclonal antibody, 21B12, and placebo will be blinded. Ezetimibe is not blinded. Study visits are at weeks 2, 4, 8, and 12. […] The end-of-study visit and the last evaluation of lipids is at week 12.
Males and females, ≥18 to ≤75 years of age, are eligible for this study. Subject must have tried at least 1 statin and have been unable to tolerate any dose or an increase in statin dose above the following total weekly maximum doses due to myalgia or myopathy: atorvastatin ≤70 mg, simvastatin ≤140 mg, pravastatin ≤140 mg, rosuvastatin ≤35 mg, lovastatin ≤140 mg, fluvastatin ≤280 mg. For unlisted statins, the maximal total weekly dose should not exceed 7 times the smallest available tablet size. Symptoms must have resolved when statin was discontinued or the dose reduced. If receiving statin (not exceeding the maximal dose defined above), bile-acid sequestering resin, and/or stanol therapy, the dose(s) must be stable for at least 4 weeks prior to LDL-C screening. If the subject is on ezetimibe at start of screening, ezetimibe must be discontinued for ≥4 weeks before LDL-C screening. Depending on their risk category (based on NCEP ATP III treatment goals) subjects must meet the following fasting LDL-C (by central laboratory) criteria at screening: ≥100 mg/dL (2.6 mmol/L) for subjects with diagnosed coronary heart disease (CHD) or CHD risk equivalent; ≥130 mg/dL (3.4 mmol/L) for subjects without diagnosed CHD or risk equivalent and 2 or more risk factors; ≥160 mg/dL (4.1 mmol/L) for subjects without diagnosed CHD or risk equivalent and with 1 or no risk factors. Fasting triglycerides must be ≤400 mg/dL (4.5 mmol/L) as determined by the central laboratory analysis at screening.

PCSK9 [2] = molecular target: T1, PCSK9; test: 12 week dose-ranging study in combination with statins (Example 25); format: in vivo; conditions: on statin, preliminary
Protocol: Randomization will be stratified by screening LDL-C level (<130 mg/dL [3.4 mmol/L] vs ≥130 mg/dL) and ezetimibe use at baseline (yes vs no). Randomization should occur within 5-10 days of the screening LDL-C evaluation used to determine eligibility. Study visits are every 2 weeks, irrespective whether the subject receives Q2W SC or Q4W treatment. […] The end-of-study visit and the last estimation of lipids is at week 12 for subjects on Q4W IP schedule and week 14 for subjects on Q2W IP schedule.
Males and females, ≥18 to ≤80 years of age, are eligible for this study. For enrollment,
subjects must be on a statin, with or without ezetimibe, with stable dose(s) for at least 4 weeks before LDL-C screening and not requiring uptitration. Fasting LDL-C at screening must be ≥85 mg/dL (2.2 mmol/L). Enrollment of subjects with screening fasting LDL-C between ≥85 mg/dL (2.2 mmol/L) and <100 mg/dL (2.6 mmol/L) will be limited to no more than approximately 20% of total planned enrollment. Fasting triglycerides must be ≤400 mg/dL (4.5 mmol/L) as determined by the central laboratory analysis at screening.

[3] = 280 mg Q4W SC, end of dosing interval
[4] = 350 mg Q4W SC, end of dosing interval
[5] = 70 mg Q2W SC, end of dosing interval
[6] = 105 mg Q2W SC, end of dosing interval
[7] = 280 mg (Q2W as printed) SC, end of dosing interval
[8] = 350 mg (Q2W as printed) SC, end of dosing interval

T1 sequence (Q8NBP7 153-692): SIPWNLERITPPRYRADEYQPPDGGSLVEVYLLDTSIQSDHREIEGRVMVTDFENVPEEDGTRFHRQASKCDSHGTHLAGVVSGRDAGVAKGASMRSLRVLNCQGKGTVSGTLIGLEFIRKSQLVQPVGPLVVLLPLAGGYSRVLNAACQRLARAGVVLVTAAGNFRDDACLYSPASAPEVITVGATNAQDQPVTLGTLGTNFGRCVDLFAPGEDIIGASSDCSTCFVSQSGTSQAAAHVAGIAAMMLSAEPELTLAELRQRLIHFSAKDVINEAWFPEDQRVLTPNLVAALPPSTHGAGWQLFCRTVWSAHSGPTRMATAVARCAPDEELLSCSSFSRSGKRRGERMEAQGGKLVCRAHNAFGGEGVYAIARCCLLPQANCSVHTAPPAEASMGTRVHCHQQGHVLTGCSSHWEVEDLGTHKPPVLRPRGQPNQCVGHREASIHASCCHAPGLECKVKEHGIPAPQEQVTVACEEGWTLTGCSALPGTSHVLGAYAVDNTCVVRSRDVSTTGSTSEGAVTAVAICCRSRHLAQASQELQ

LS mean percent increase from baseline in HDL-C (PCSK9 [2]; [5]): 21.17% | LS mean percent reduction from baseline in LDL-C (PCSK9 [2]; [5]): 39.22% | LS mean percent reduction from baseline in Lp(a) (PCSK9 [2]; [5]): 21.17% | LS mean percent reduction from baseline in VLDL-C (PCSK9 [2]; [5]): 14.84% | LS mean percent reduction from baseline in non-HDL-C (PCSK9 [2]; [5]): 36.20% | LS mean percent reduction from baseline in total cholesterol (PCSK9 [2]; [5]): 26.33% | LS mean percent reduction from baseline in triglycerides (PCSK9 [2]; [5]): 7.20% | LS mean percent increase from baseline in HDL-C (PCSK9 [2]; [6]): 6.80% | LS mean percent reduction from baseline in LDL-C (PCSK9 [2]; [6]): 56.38% | LS mean percent reduction from baseline in Lp(a) (PCSK9 [2]; [6]): 33.41% | LS mean percent reduction from baseline in VLDL-C (PCSK9 [2]; [6]): 12.75% | LS mean percent reduction from baseline in non-HDL-C (PCSK9 [2]; [6]): 51.20% | LS mean percent reduction from baseline in total cholesterol (PCSK9 [2]; [6]): 36.91% | LS mean percent reduction from baseline in triglycerides (PCSK9 [2]; [6]): 5.65% | LS mean percent increase from baseline in HDL-C (PCSK9 [2]; 140 mg Q2W SC): 8.43% | LS mean percent reduction from baseline in LDL-C (PCSK9 [2]; 140 mg Q2W SC): 68.76% | LS mean percent reduction from baseline in Lp(a) (PCSK9 [2]; 140 mg Q2W SC): 33.87% | LS mean percent reduction from baseline in VLDL-C (PCSK9 [2]; 140 mg Q2W SC): 45.14% | LS mean percent reduction from baseline in non-HDL-C (PCSK9 [2]; 140 mg Q2W SC): 64.61% | LS mean percent reduction from baseline in total cholesterol (PCSK9 [2]; 140 mg Q2W SC): 46.17% | LS mean percent reduction from baseline in triglycerides (PCSK9 [2]; 140 mg Q2W SC): 17.60% | LS mean percent increase from baseline in HDL-C (PCSK9 [2]; [7]): 2.17% | LS mean percent reduction from baseline in Lp(a) (PCSK9 [2]; [7]): 22.54% | LS mean percent reduction from baseline in VLDL-C (PCSK9 [2]; [7]): 18.12% | LS mean percent reduction from baseline in non-HDL-C (PCSK9 [2]; [7]): 38.89% | LS mean percent reduction from baseline in total cholesterol (PCSK9 [2]; [7]): 28.08% | LS mean percent reduction from baseline in triglycerides (PCSK9 [2]; [7]): 6.75% | LS mean percent reduction from baseline in LDL-C (PCSK9 [2]; 280 mg (Q4W) SC, end of dosing interval): 42.62% | LS mean percent increase from baseline in HDL-C (PCSK9 [2]; [8]): 6.92% | LS mean percent reduction from baseline in Lp(a) (PCSK9 [2]; [8]): 29.43% | LS mean percent reduction from baseline in VLDL-C (PCSK9 [2]; [8]): 20.89% | LS mean percent reduction from baseline in non-HDL-C (PCSK9 [2]; [8]): 50.83% | LS mean percent reduction from baseline in total cholesterol (PCSK9 [2]; [8]): 36.04% | LS mean percent reduction from baseline in triglycerides (PCSK9 [2]; [8]): 9.17% | LS mean percent reduction from baseline in LDL-C (PCSK9 [2]; 350 mg SC, end of dosing interval): 56.84% | LS mean percent increase from baseline in HDL-C (PCSK9 [2]; 420 mg (Q2W as printed) SC): 7.42% | LS mean percent reduction from baseline in Lp(a) (PCSK9 [2]; 420 mg (Q2W as printed) SC): 23.29% | LS mean percent reduction from baseline in VLDL-C (PCSK9 [2]; 420 mg (Q2W as printed) SC): 28.66% | LS mean percent reduction from baseline in non-HDL-C (PCSK9 [2]; 420 mg (Q2W as printed) SC): 48.54% | LS mean percent reduction from baseline in total cholesterol (PCSK9 [2]; 420 mg (Q2W as printed) SC): 42.76% | LS mean percent reduction from baseline in triglycerides (PCSK9 [2]; 420 mg (Q2W as printed) SC): 11.13% | LS mean percent reduction from baseline in LDL-C (PCSK9 [2]; 420 mg SC): 52.19%
B1: 21B12: human anti-PCSK9 monoclonal antibody, light/heavy variable region SEQ ID NO 23/49 (antibody, listed as Homo sapiens, V domains shown)
VH: QVQLVQSGAEVKKPGASVKVSCKASGYTLTSYGISWVRQAPGQGLEWMGWVSFYNGNTNYAQKLQGRGTMTTDPSTSTAYMELRSLRSDDTAVYYCARGYGMDVWGQGTTVTVSS
VL: QSALTQPASVSGSPGQSITISCTGTSSDVGGYNSVSWYQQHPGKAPKLMIYEVSNRPSGVSNRFSGSKSGNTASLTISGLQAEDEADYYCNSYTSTSMVFGGGTKLTVL
LS mean percent increase from baseline in HDL-C (PCSK9 [1]; [3]): 8.62% | LS mean percent reduction from baseline in LDL-C (PCSK9 [1]; [3]): 38.79% | LS mean percent reduction from baseline in Lp(a) (PCSK9 [1]; [3]): 27.38% | LS mean percent reduction from baseline in VLDL-C (PCSK9 [1]; [3]): 31.02% | LS mean percent reduction from baseline in non-HDL-C (PCSK9 [1]; [3]): 39.92% | LS mean percent reduction from baseline in total cholesterol (PCSK9 [1]; [3]): 31.03% | LS mean percent reduction from baseline in triglycerides (PCSK9 [1]; [3]): 15.35% | LS mean percent increase from baseline in HDL-C (PCSK9 [1]; [4]): 4.62% | LS mean percent reduction from baseline in LDL-C (PCSK9 [1]; [4]): 40.01% | LS mean percent reduction from baseline in Lp(a) (PCSK9 [1]; [4]): 16.04% | LS mean percent reduction from baseline in VLDL-C (PCSK9 [1]; [4]): 38.14% | LS mean percent reduction from baseline in non-HDL-C (PCSK9 [1]; [4]): 42.86% | LS mean percent reduction from baseline in total cholesterol (PCSK9 [1]; [4]): 34.46% | LS mean percent reduction from baseline in triglycerides (PCSK9 [1]; [4]): 19.22% | LS mean percent increase from baseline in HDL-C (PCSK9 [1]; 420 mg Q4W SC): 7.55% | LS mean percent reduction from baseline in LDL-C (PCSK9 [1]; 420 mg Q4W SC): 50.63% | LS mean percent reduction from baseline in Lp(a) (PCSK9 [1]; 420 mg Q4W SC): 23.84% | LS mean percent reduction from baseline in VLDL-C (PCSK9 [1]; 420 mg Q4W SC): 37.27% | LS mean percent reduction from baseline in non-HDL-C (PCSK9 [1]; 420 mg Q4W SC): 53.49% | LS mean percent reduction from baseline in total cholesterol (PCSK9 [1]; 420 mg Q4W SC): 42.23% | LS mean percent reduction from baseline in triglycerides (PCSK9 [1]; 420 mg Q4W SC): 19.55%
